B1: Golgi resident protein GCP60 (Homo sapiens), Q9H3P7 (parent)
chain: MAAVLNAERLEVSVDGLTLSPDPEERPGAEGAPLLPPPLPPPSPPGSGRGPGASGEQPEPGEAAAGGAAEEARRLEQRWGFGLEELYGLALRFFKEKDGKAFHPTYEEKLKLVALHKQVLMGPYNPDTCPEVGFFDVLGNDRRREWAALGNMSKEDAMVEFVKLLNRCCHLFSTYVASHKIEKEEQEKKRKEEEERRRREEEERERLQKEEEKRRREEEERLRREEEERRRIEEERLRLEQQKQQIMAALNSQTAVQFQQYAAQQYPGNYEQQQILIRQLQEQHYQQYMQQLYQVQLAQQQAALQKQQEVVVAGSSLPTSSKVNATVPSNMMSVNGQAKTHTDSSEKELEPEAAEEALENGPKESLPVIAAPSMWTRPQIKDFKEKIQQDADSVITVGRGEVVTVRVPTHEEGSYLFWEFATDNYDIGFGVYFEWTDSPNTAVSVHVSESSDDDEEEEENIGCEEKAKKNANKPLLDEIVPVYRRDCHEEVYAGSHQYPGRGVYLLKFDNSYSLWRSKSVYYRVYYTR
partner: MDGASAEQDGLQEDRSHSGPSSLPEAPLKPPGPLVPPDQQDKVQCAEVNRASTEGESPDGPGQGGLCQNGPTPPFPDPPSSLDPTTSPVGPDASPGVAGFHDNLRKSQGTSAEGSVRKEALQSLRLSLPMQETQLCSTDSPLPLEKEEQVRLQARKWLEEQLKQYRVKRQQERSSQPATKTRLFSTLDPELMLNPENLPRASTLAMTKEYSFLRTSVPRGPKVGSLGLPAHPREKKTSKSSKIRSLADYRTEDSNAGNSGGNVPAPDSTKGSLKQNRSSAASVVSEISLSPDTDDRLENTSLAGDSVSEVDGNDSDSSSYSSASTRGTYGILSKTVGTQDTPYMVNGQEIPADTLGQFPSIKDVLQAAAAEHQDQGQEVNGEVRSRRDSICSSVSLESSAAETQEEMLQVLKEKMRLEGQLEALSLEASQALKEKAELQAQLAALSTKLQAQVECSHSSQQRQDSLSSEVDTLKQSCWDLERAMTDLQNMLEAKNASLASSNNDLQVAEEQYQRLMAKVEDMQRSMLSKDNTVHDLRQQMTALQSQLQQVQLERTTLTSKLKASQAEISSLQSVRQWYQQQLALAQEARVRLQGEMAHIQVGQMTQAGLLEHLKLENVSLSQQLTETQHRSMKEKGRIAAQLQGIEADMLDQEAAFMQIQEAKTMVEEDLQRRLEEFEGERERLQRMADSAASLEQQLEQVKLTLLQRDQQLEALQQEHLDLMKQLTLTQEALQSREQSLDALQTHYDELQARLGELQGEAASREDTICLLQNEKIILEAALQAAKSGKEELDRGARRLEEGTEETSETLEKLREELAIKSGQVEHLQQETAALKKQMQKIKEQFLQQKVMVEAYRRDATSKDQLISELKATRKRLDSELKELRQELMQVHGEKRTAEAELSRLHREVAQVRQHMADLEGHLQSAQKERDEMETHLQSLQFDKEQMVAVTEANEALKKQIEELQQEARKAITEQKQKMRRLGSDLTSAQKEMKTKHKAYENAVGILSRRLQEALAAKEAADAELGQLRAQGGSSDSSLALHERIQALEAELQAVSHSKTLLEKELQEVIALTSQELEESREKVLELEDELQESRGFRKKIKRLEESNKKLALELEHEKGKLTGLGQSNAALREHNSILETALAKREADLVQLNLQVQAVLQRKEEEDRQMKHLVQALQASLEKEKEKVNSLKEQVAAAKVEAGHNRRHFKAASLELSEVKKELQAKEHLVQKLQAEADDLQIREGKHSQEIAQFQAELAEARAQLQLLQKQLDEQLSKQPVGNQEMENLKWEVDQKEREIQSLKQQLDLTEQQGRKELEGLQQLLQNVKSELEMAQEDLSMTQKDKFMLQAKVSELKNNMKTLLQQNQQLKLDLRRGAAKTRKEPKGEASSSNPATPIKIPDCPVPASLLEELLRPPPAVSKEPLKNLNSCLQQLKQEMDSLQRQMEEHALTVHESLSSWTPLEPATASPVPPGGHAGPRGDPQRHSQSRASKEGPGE

Variants of: B1
Settings: with goga3_human GOLGA3, Q08378

effect of a mutation on the interaction | Variant
disrupting interaction | MAAVLNAERLEVSVDGLTLSPDPEERPGAEGAPLLPPPLPPPSPPGSGRGPGASGEQPEPGEAAAGGAAEEARRLEQRWGFGLEELYGLALRFFKEKDGKAFHPTYEEKLKLVALHKQVLMGPYNPDTCPEVGFFDVLGNDRRREWAALGNMSKEDAMVEFVKLLNRCCHLFSTYVASHKIEKEEQEKKRKEEEERRRREEEERERLQKEEEKRRREEEERLRREEEERRRIEEERLRLEQQKQQIMAALNSQTAVQFQQYAAQQYPGNYEQQQILIRQLQEQHYQQYMQQLYQVQLAQQQAALQKQQEVVVAGSSLPTSSKVNATVPSNMMSVNGQAKTHTDSSEKELEPEAAEEALENGPKESLPVIAAPSMWTRPQIKDFKEKIQQDADSVITVGRGEVVTVRVPTHEEGSYLFWEFATDNYDIGFGVYFEWTDSPNTAVSVHVSESSDDDEEEEENIGSEEKAKKNANKPLLDEIVPVYRRDCHEEVYAGSHQYPGRGVYLLKFDNSYSLWRSKSVYYRVYYTR [C463S]
